This passage reports stoichiometry N (AcrIIA19 per Cas9) and stoichiometry N results from paper PMC12855784.

Like-named read-outs stand apart in the source and are kept apart here.

Experiment in all cases: SEC-MALS
In general terms: SEC sorts molecules by how far they enter the pores of the column.

In assay [1] the target is Streptococcus pyogenes Cas9, full length, 6×His tagged (Streptococcus pyogenes) (UniProt Q99ZW2).
In assay [2] the target is AcrIIA19 (full length, C-terminal 6×His tag) (Staphylococcus pseudintermedius).
Assay [3] shares this target. This is another data set of the same source.

Chain of UniProt Q99ZW2 (Q99ZW2 whole entry): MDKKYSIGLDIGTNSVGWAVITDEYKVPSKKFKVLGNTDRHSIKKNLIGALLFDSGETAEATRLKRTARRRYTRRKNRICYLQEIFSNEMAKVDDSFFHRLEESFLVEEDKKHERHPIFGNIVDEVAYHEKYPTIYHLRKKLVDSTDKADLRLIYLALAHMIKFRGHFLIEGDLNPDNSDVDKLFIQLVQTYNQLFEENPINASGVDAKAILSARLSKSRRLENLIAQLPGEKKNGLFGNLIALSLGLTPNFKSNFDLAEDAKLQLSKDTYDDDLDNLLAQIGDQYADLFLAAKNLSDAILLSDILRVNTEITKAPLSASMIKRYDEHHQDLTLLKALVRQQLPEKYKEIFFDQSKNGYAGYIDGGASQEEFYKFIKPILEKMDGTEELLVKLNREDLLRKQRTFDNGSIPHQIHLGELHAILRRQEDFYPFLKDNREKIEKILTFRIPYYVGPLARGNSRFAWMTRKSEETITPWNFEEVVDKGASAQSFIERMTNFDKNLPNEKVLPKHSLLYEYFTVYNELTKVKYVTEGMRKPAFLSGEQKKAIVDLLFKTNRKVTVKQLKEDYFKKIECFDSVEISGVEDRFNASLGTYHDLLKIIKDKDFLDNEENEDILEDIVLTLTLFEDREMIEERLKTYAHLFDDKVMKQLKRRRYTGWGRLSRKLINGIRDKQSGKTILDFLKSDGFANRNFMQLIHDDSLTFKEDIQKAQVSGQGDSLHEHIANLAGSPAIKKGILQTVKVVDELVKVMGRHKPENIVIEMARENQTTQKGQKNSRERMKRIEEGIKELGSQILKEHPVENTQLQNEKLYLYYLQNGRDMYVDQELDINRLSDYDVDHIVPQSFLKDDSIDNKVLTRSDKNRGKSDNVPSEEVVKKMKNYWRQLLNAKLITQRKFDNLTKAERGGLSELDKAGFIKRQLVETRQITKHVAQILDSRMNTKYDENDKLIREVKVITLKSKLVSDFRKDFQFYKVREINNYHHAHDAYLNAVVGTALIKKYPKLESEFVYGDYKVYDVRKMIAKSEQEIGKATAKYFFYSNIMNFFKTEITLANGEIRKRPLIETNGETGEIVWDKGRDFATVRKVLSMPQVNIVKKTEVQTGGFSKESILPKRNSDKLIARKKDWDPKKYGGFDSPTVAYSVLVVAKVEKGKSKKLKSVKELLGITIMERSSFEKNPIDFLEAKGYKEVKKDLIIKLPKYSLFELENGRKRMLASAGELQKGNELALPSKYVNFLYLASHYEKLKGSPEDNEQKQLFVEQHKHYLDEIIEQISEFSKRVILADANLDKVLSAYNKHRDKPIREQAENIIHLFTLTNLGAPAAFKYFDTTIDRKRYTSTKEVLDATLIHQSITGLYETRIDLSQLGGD

Regarding “AcrIIA19 (full length, C-terminal 6×His tag) (natural protein)”, in assay [1], the stoichiometry N (AcrIIA19 per Cas9) is 1. The stoichiometry N in assay [2] and in assay [3] was 2 in each case.
